Target: T1, CK2α (recombinant, GenScript) (UniProt P68400 1-391)
T1 construct: CK2α, catalytic alpha subunit of casein kinase II; No catalogue number, species or construct is printed; also called CK2α subunit; CK2 alpha; source: bought: GenScript
Assay: SPR; Biacore T200; MOTS-c or K14Q MOTS-c (10 μg/mL, 10 mM sodium acetate pH 5.0) immobilised on CM5 chip (278 RU and 193 RU); first 70 nM CK2α or CK2β, then CK2α at 2.5, 5.0, 10 and 20 nM flowed at 30 μL/min in 0.01 M HEPES, 0.15 M NaCl, 0.3 mM EDTA, 0.05% tween
Details: both partners purified

T1 sequence (P68400 whole entry): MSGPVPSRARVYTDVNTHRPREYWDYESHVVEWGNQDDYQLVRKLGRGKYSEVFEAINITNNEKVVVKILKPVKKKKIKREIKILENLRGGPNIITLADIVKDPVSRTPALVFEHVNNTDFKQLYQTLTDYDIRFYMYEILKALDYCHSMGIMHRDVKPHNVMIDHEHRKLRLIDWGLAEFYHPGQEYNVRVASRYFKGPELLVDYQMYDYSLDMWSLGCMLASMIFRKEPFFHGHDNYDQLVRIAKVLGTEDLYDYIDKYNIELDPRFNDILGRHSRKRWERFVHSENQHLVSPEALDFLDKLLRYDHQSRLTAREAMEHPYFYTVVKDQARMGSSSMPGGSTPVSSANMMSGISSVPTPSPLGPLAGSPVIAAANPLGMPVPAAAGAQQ

| Kd | Binder |
| --- | --- |
| 1 nM | MRWQEMGYIFYPRKLR (MOTS-c, human, 16-amino acid microprotein encoded in the mitochondrial 12S rRNA region; also called WT MOTS-c; synthetic MOTS-c; source: synthetic peptide, bought: GenScript; for the co-IP injected into mice (7.5 mg/kg) and found in tissue lysate) [MOTS-c (mitochondrial open reading frame of the 12S ribosomal RNA type-c), wild type] |
| 16.2 nM | MRWQEMGYIFYPRQLR (peptide, UniProt A0A0C5B5G6 1-16, looked up, MOTS-c, human, natural variant m.1382A>C causing K14Q; source: synthetic peptide, bought: GenScript) [K14Q MOTS-c (naturally occurring MOTS-c variant)] |
